Assay results from patent US20200330514A1 (TORQUE THERAPEUTICS, published 2020).

T1: human CD45 receptor on the surface of human T cells (human, UniProt P08575 26-1306)
T1 construct: whole, on cells; also called cellular CD45; leukocyte common antigen
T1 sequence (looked up): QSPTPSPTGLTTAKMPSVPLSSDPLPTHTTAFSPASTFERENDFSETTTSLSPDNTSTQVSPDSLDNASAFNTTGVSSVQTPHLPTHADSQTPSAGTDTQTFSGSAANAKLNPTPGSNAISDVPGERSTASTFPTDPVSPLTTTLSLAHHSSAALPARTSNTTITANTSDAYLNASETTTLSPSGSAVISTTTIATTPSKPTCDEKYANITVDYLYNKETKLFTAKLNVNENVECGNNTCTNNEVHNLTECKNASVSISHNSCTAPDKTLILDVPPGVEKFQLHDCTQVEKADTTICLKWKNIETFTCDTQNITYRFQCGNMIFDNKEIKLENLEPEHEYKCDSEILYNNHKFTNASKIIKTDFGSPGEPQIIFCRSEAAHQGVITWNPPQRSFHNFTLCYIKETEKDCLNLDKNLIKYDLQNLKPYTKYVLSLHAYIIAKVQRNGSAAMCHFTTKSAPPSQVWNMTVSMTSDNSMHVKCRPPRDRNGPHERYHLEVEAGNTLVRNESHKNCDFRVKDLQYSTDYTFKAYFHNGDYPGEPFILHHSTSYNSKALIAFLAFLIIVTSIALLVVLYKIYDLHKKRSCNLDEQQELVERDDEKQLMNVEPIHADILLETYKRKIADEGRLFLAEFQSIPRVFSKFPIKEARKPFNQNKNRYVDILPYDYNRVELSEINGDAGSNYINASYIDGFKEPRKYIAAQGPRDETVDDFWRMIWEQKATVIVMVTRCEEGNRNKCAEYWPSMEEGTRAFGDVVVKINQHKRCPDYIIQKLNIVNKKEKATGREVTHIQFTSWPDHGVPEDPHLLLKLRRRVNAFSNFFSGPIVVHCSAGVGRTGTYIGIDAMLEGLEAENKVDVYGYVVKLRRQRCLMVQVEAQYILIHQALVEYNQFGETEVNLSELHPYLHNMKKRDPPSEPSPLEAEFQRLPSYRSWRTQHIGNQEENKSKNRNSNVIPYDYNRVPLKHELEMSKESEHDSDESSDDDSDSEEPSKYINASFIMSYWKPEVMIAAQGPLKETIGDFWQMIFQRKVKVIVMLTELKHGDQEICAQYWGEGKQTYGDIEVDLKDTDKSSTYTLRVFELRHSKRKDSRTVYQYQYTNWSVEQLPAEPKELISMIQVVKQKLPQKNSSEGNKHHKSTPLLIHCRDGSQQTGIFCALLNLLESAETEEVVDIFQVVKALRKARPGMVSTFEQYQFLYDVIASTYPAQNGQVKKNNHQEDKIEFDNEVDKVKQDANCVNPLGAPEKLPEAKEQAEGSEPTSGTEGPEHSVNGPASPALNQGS

B1: h9.4Fab-scIL-12p70 (other)
heavy: EVQLVQSGAEVKKPGASVKVSCKASGYTFTSYSIQWVRQAPGQRLEWIGYINPSSGYIKYNQHFRGRATLTADRSASTAYMELSSLRSEDTAVYYCARGNSGSFDYWGQGTLVTVSSASTKGPSVFPLAPSSKSTSGGTAALGCLVKDYFPEPVTVSWNSGALTSGVHTFPAVLQSSGLYSLSSVVTVPSSSLGTQTYICNVNHKPSNTKVDKKVEPKSC
light: DIVMTQSPLSLPVTPGEPASISCRSSQSLLHSSGITYLYWFLQKPGQSPQLLIYRMSNLASGVPDRFSGSGSGTDFTLKISRVEAEDVGVYYCMQHLEYPFTFGQGTKLEIKRTVAAPSVFIFPPSDEQLKSGTASVVCLLNNFYPREAKVQWKVDNALQSGNSQESVTEQDSKDSTYSLSSTLTLSKADYEKHKVYACEVTHQGLSSPVTKSFNRGECGGGGSGGGGSGGGGSIWELKKDVYVVELDWYPDAPGEMVVLTCDTPEEDGITWTLDQSSEVLGSGKTLTIQVKEFGDAGQYTCHKGGEVLSHSLLLLHKKEDGIWSTDILKDQKEPKNKTFLRCEAKNYSGRFTCWWLTTISTDLTFSVKSSRGSSDPQGVTCGAATLSAERVRGDNKEYEYSVECQEDSACPAAEESLPIEVMVDAVHKLKYENYTSSFFIRDIIKPDPPKNLQLKPLKNSRQVEVSWEYPDTWSTPHSYFSLTFCVQVQGKSKREKKDRVFTDKTSATVICRKNASISVRAQDRYYSSSWSEWASVPCSGGGSGGGSGGGSGGGSRNLPVATPDPGMFPCLHHSQNLLRAVSNMLQKARQTLEFYPCTSEEIDHEDITKDKTSTVEACLPLELTKNESCLNSRETSFITNGSCLASRKTSFMMALCLSSIYEDLKMYQVEFKTMNAKLLMDPKRQIFLDQNMLAVIDELMQALNFNSETVPQKSSLEEPDFYKTKIKLCILLHAFRIRAVTIDRVMSYLNAS
notes: Anti-human CD45 Fab fused to single-chain human IL-12p70; also called anti-CD45-IL12-TF; IL12-TF
B2: chOKT8Fab (anti-human CD8 clone OKT8 as Fab fragment) (Fab, V domains shown)
VH: QVQLQQSGAELVKPGASVKLSCTASGFNIKDTYIHFVRQRPEQGLEWIGRIDPANDNTLYASKFQGKATITADTSSNTAYMHLSSLTSGDTAVYYCGRGYGYYVFDHWGQGTTLTVSS
VL: DVQINQSPSFLAASPGETITINCRTSRSISQYLAWYQEKPGKTNKLLIYSGSTLQSGIPSRFSGSGSGTDFTLTISGLEPEDFAMYYCQQHNENPLTFGAGTKLELKR
B3: ch9.4 chimeric IgG anti-CD45 antibody (antibody, V domains shown)
VH: QVQLQQLGAELARPGASVKMSCKASGYTFTSYSIQWVKQRPGQGLEWIGYINPSSGYIKYNQHFRDRATLTADRSSSTAYMQLSSLTSEDSAVYYCARGNSGSFDYWGQGTTLTVSS
VL: DIVMTQAAPSVPVTPGESLSISCRSSKSLLHSSGITYLYWFLQRPGQSPQLLIYRMSNLASGVPDRFSGSGSGTAFTLRISRVEAEDVGVYYCMQHLEYPFTFGGGTKLEIK
notes: Chimeric IgG: mouse variable domains, human constant kappa domain and human IgG4 with S228P
B4: hBC8(23) humanized BC8 anti-CD45 antibody (IgG form) (antibody, V domains shown)
VH: EVQLVESGGGLVQPGGSLRLSCAASGFDFSRYWMSWVRQAPGKGLEWIGEINPTSSTINFADSVKGRFTISRDNAKNSLYLQMNSVRDEDTAVYYCARGNYYRYGDAMDYWGQGTLVTVSS
VL: EIVLTQSPATLSLSLGERATISCRASKSVSTSGYSYLHWYQQKPGQAPKLLIYLASNRATGVPARFSGSGPGTDFTLTISSLEPEDFATYYCQHSRELPFTFGQGTKLEIK
notes: Tested as an antibody detected with anti-human IgG-Fc; its constant regions are not spelled out for the humanized antibody
B5: ch4B2 chimeric IgG anti-CD45 antibody (antibody, V domains shown)
VH: QVQLQQSGAELARPGASVKMSCKASGYTFTSYTMQWVKQRPGQGLEWIGYINPSSGYIKYNQKFKDKVTLTADKSSTTAYMQLSRLTSEDSAVYYCARRGSYFFDFWGQGTSVTVSS
VL: DIVITQDELSNPVTSGESVSISCRSSKSLLYKDGKTYLNWFLQRPGQSPQLLIYLMSTRASGVSDRFSGSGSGTDFTLEISRVKAEDVGVYYCQQLVEYPFTFGGGTKLEVK
notes: as for B3
B6: human CD8 on the surface of human CD8 T cells (receptor)
chain 1: not shown
chain 2: LQQTPAYIKVQTNKMVMLSCEAKISLSNMRIYWLRQRQAPSSDSHHEFLALWDSAKGTIHGEEVEQEKIAVFRDASRFILNLTSVKPEDSGIYFCMIVGSPELTFGKGTQLSVVDFLPTTAQPTKKSTLKKRVCRLPRPETQKGPLCSPITLGLLVAGVLVLLVSLGVAIHLCCRRRRARLRFMKQFYK
notes: whole, on cells
B7: chBC8 chimeric IgG anti-CD45 antibody (IgG4-S228P) (antibody, V domains shown)
VH: QVQLVESGGGLVQPGGSLKLSCAASGFDFSRYWMSWVRQAPGKGLEWIGEINPTSSTINFTPSLKDKVFISRDNAKNTLYLQMSKVRSEDTALYYCARGNYYRYGDAMDYWGQGTSVTVSS
VL: DIVLTQSPASLAVSLGQRATISCRASKSVSTSGYSYLHWYQQKPGQPPKLLIYLASNLESGVPARFSGSGSGTDFTLNIHPVEEEDAATYYCQHSRELPFTFGSGTKLEIKR
notes: also called chBC8 IgG; chimeric BC8

Assays:
[1] = molecular target: T1, human CD45 receptor on the surface of …; experiment: pulse incubation of human CD3 T cells, anti-human IgG staining by flow cytometry (FIG. 23)
Protocol: We evaluated the ability of IL12-TFs to support the loading of IL-12 onto T cells. Briefly, human total CD3 T cells were activated with CD3/CD28 Dynabeads for three days. Beads were removed and cells were incubated with IL-2 for 1 day prior to pulse incubation with h9.4Fab-scIL-12p70 diluted in full medium (RPMI 1640 with 10% FBS). Cells were incubated in biological duplicate with full media (Mock condition) or h9.4Fab-scIL-12p70 for 1 hr at 37° C. and then washed three times will full media (RPMI 1640 with 10% FBS) to remove unbound IL12-TF. Cells were then plated in full medium at a cell density of approximately 200,000 cells/mL and incubated at 37° C., 5% CO2. Surface tethered IL-12 was detected using flow cytometry by immunostaining with a polyclonal anti-human IgG antibody. Cells were counted using CountBright Absolute flow cytometry counting beads. In each case cells were analyzed on a FACSCelesta using Diva Software; data was analyzed using Cytobank.

[2] = molecular target: B6; experiment: flow cytometry titration on total CD3 human T cells (FIG. 17D)
[3] = molecular target: T1, human CD45 receptor on the surface of …; experiment: apparent KD (KD,app); flow cytometry titration of IgG on activated primary human CD8 T cells, 4-parameter fit
From the text: For comparison with previous results we evaluated these antibodies alongside chBC8, hBC8(23), and a non-binding variant hBC8-null. The humanized BC8 antibody consists of variable domains containing CDR regions grafted from BC8, and the hBC8-null variant contains an SGGGS substitution in the heavy-chain CDR3, which ablates binding to CD45 (FIG. 10A). […] We use the term apparent dissociation constant (K_{D,app}) to distinguish from a true equilibrium dissociation constant: the bivalent nature of the IgG antibody introduces an avidity effect that complicates the calculation of a true equilibrium dissociation constant for these type of assays. Nevertheless, the K_{D,app} is a useful metric for scoring relative affinities of the antibodies to the cellular receptor in its native context.
Cell binding assay. Primary human CD8 T-cells were activated with CD3/CD28 beads and 10 ng/mL IL-2 as described in Example 1. Following activation and an overnight rest in full RPMI media (see Example 1 methods) the T-cells were incubated with seven serial five-fold dilutions of antibodies spanning 500 nM to 6.4 μM, or with media only control at 4° C. for 1 hr. Cells were washed with MACS buffer (PBS, 2% FBS, 1 mM EDTA) three times, and antibody binding was detected using a PE-conjugated anti-human IgG-Fc antibody (BioLegend, cat. no. HP6017) for 20 min. at 4° C. Cells were washed two times with MACS buffer, and the resuspended in MACS buffer with live-dead stain (7-AAD). Antibody binding was quantified using the median fluorescence intensity (MFI) of the live cell population (via 7-AAD exclusion) within the PE signal. Curves were generated by plotting mean fluorescent units against antibody concentration, and apparent dissociation constants (K_{D,app}) were determined by non-linear regression using a four-parameter logistic equation using GraphPad Prism (GraphPad Software, Inc.).

chOKT8-IL15/sushi Fab = molecular target: T2, chOKT8-IL15/sushi Fab (human, UniProt Q13261 31-95); experiment: flow cytometry titration on total CD3 human T cells (FIG. 17D)
T2 construct: Anti-human CD8 Fab IFM; also called chOKT8Fab-IL15/sushi; chOKT8Fab-Il15/sushi
T2 sequence (Q13261 31-95): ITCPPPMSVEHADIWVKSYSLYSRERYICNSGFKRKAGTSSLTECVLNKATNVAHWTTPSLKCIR

## B1
[1]
  binding result: binds

## B2
[2]
  binding result: binds

## B3
[3]
  Kd: 0.84 nM

## B4
[3]
  Kd: 7.8 nM

## B5
[3]
  Kd: 0.44 nM

## B6
chOKT8-IL15/sushi Fab
  binding result: binds

## B7
[3]
  Kd: 6.68 nM
